Columns and labels:
[1] = biological target: T1, human CD8αα homodimer, recombinant protein (Acro Biosystems) (human, UniProt P01732 22-182); assay: BLI kinetic sensorgram, 1:1 global fit, 30 °C
T1 construct: also called CD8αα antigen; biotinylated CD8α recombinant protein (CDA-H82E3)
Procedure: (§1) The global fitting was performed with a 1:1 fitting model using GatorOne software as described below.
(§2) Biolayer interferometry kinetic assays were performed using a GatorBio Gator Plus BLI system. Kinetic buffer containing PBS plus 0.1% Tween 20 and 0.2% BSA was used for calculating the baseline. To measure the binding kinetics of anti-CD8α antibody fragment (Fab), streptavidin-immobilized SA-XT sensors (#160029, Gator Bio) were prehydrated in the kinetic buffer and loaded with […] biotinylated CD8α recombinant protein (CDA-H82E3, Acro Biosystems) at a spin speed of 400 rpm to a threshold response of 10 nm. The sensors were then incubated in the kinetic buffer for 300 s to acquire a baseline measurement prior to each association. […] The antigen-loaded sensors were incubated in the diluted solutions to capture Fab fragments for 300 s to record the association phase. Sensors were finally incubated in the kinetic buffer for 900 s to record the dissociation phase. The spin speed for all steps except the antigen loading step was 1000 rpm. The temperature of the performed assays was either 30° C. or 37° C. during the association and dissociation phases. Sensor data were baseline subtracted, and global curve fitting of the kinetic data from six different analyte concentrations at a 1:1 monovalent binding model was performed using GatorOne software (version v2.10) to determine kinetic rate constants (kₒₙ and koff) and equilibrium dissociation constants (KD) of the analyzed antibodies.

[2] = biological target: T2, cynomolgus macaque CD8αβ heterodimer, recombinant protein (cynomolgus macaque); assay: BLI kinetics, Fab, antigen amine-coupled to the sensor, 30 °C
T2 construct: In BLI coupled directly to amine-reactive sensor tips; also called cynomolgus CD8αβ heterodimer
Procedure: The binding kinetics of CBD1033 Fab and its parental CBD1017ch Fab against human CD8αα homodimer, human CD8αβ heterodimer, and cynomolgus macaque CD8ααhomodimer were assessed following the same method in BLI evaluation of humanized Fab variants. For evaluating the binding kinetics against cynomolgus macaque CD8αβ heterodimer protein, the antigen protein was directly coupled onto amine-reactive biosensor tips (Gator Bio) following the manufacturer protocol. Briefly, the sensors were activated for 300 s with a mixture of 1-ethyl-3-(3-dimethylaminopropyl)carbodiimide hydrochloride (EDC) (ThermoFisher Scientific) and 10 mM N-Hydroxysulfosuccinimide sodium salt (sulfo-NHS) (Sigma-Aldrich) in water. The cynomolgus macaque CD8αβ protein diluted to […] in 10 mM sodium acetate buffer, pH 6.0, was allowed to be covalently captured for 300 s to an approximate threshold of 5 nm, and the sensors were subsequently deactivated with 1 M ethanolamine (ETA) (Sigma-Aldrich) solution, pH 8.5, for 300 s. The sensors were then rinsed in the kinetic buffer for 600 s. The rinse step was repeated for an additional 120 s for baseline calculation prior to the measurements of the binding kinetics. The antibody fragment was diluted into kinetic buffer via 3-fold dilution at concentrations ranging from 1000 nM to 1.37 nM. As above, the antigen-captured sensors were incubated in the diluted solutions to capture the Fab fragments for 1200 s to record the association phase. Sensors were subsequently incubated in the kinetic buffer for 1200 s to record the dissociation phase. The shaking speed for all steps was 1000 rpm and the temperature of the performed assays were at 30° C. The kinetic parameters were determined with 1:1 monovalent (Langmuir) binding model using the previous method.

[3] = biological target: T1, human CD8αα homodimer, recombinant …; assay: BLI kinetics, F(ab) on biotinylated CD8α (SA-XT sensor), 1:1 fit, 37 °C [CONT'ED]
Procedure: as §2

[4] = biological target: T1, human CD8αα homodimer, recombinant …; assay: BLI kinetics, Fab, 37 °C
Procedure: as §2
(§3) The binding kinetics of CBD1033 Fab and its parental CBD1017ch Fab against human CD8αα homodimer, human CD8αβ heterodimer, and cynomolgus macaque CD8ααhomodimer were assessed following the same method in BLI evaluation of humanized Fab variants. For evaluating the binding kinetics against cynomolgus macaque CD8αβ heterodimer protein, the antigen protein was directly coupled onto amine-reactive biosensor tips (Gator Bio) following the manufacturer protocol. Briefly, the sensors were activated for 300 s with a mixture of 1-ethyl-3-(3-dimethylaminopropyl)carbodiimide hydrochloride (EDC) (ThermoFisher Scientific) and 10 mM N-Hydroxysulfosuccinimide sodium salt (sulfo-NHS) (Sigma-Aldrich) in water.

[5] = biological target: T3, human CD8αβ heterodimer, recombinant protein (human, UniProt P01732 22-182; P10966 22-170, limits assumed); assay: BLI kinetics, Fab, 37 °C
T3 sequence (P01732 22-182 limits assumed, chain 1 of 2): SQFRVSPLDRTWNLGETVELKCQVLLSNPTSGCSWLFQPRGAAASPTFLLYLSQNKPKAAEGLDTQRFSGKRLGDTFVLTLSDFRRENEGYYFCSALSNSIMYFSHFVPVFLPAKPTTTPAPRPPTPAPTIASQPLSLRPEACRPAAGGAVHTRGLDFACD
T3 sequence (P10966 22-170 limits assumed, chain 2 of 2): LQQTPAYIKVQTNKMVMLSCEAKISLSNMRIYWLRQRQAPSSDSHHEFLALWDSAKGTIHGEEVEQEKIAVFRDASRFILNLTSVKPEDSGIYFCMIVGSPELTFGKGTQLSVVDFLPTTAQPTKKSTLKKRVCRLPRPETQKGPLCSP
Procedure: as §2, §3

[6] = biological target: T4, cynomolgus macaque CD8αα homodimer, recombinant protein (cynomolgus macaque); assay: BLI kinetics, Fab, 37 °C as printed in the table
T4 construct: also called cynomolgus CD8αα homodimer
Procedure: as §2, §3

[7] = biological target: T1, human CD8αα homodimer, recombinant …; assay: BLI kinetic sensorgram, 1:1 global fit, 37 °C [CONT'ED]
Procedure: as §1, §2

[8] = biological target: T1, human CD8αα homodimer, recombinant …; assay: BLI kinetics, F(ab) on biotinylated CD8α (SA-XT sensor), 1:1 fit, 30 °C
Procedure: as §2

[9] = biological target: T1, human CD8αα homodimer, recombinant …; assay: BLI kinetic assay (told in the description; antigen not given)
Procedure: as §2, §3

[10] = biological target: T4, cynomolgus macaque CD8αα homodimer, …; assay: as above
Procedure: as §2, §3

[11] = biological target: T3, human CD8αβ heterodimer, recombinant …; assay: as above
Procedure: as §2, §3

[12] = biological target: T2, cynomolgus macaque CD8αβ heterodimer, …; assay: as above
Procedure: as §2, §3

[13] = biological target: T1, human CD8αα homodimer, recombinant …; assay: BLI kinetic rate analysis, Fab fragment (temperature not given)
Procedure: as §2

[14] = biological target: T4, cynomolgus macaque CD8αα homodimer, …; assay: BLI kinetic sensorgram, 1:1 global fit (legend: 30 °C; FIG. 2I prints 37 °C for the same constants)
Procedure: as §2, §3

T1 sequence (P01732 22-182 limits assumed): as the sequence (P01732 22-182 limits assumed, chain 1 of 2) above

Kd [1]: 3.25 nM
koff [1]: 0.000145 s⁻¹
kon [1]: 44700 M⁻¹ s⁻¹
Kd [2]: 119 nM
koff [2]: 0.00199 s⁻¹
kon [2]: 16700 M⁻¹ s⁻¹
Kd [3]: 5.5 nM
koff [3]: 0.000194 s⁻¹
kon [3]: 35400 M⁻¹ s⁻¹
Kd [4]: 5.5 nM
koff [4]: 0.000194 s⁻¹
kon [4]: 35400 M⁻¹ s⁻¹
Kd [5]: 26.2 nM
koff [5]: 0.000653 s⁻¹
kon [5]: 25000 M⁻¹ s⁻¹
Kd [6]: 10.4 nM
koff [6]: 0.000264 s⁻¹
kon [6]: 25400 M⁻¹ s⁻¹
Kd [7]: 5.5 nM
koff [7]: 0.000194 s⁻¹
kon [7]: 35400 M⁻¹ s⁻¹
Kd [8]: 3.25 nM
koff [8]: 0.000145 s⁻¹
kon [8]: 44700 M⁻¹ s⁻¹
fold weaker binding affinity than CBD1017ch F(ab) [9]: 5 fold
fold weaker binding affinity than CBD1017ch F(ab) [10]: 5 fold
fold weaker binding affinity than CBD1017ch F(ab) [11]: 5 fold
fold weaker binding affinity than CBD1017ch F(ab) [12]: 5 fold
Kd [13]: 5.5 nM
koff [13]: 0.000195 s⁻¹
kon [13]: 35400 M⁻¹ s⁻¹
Kd [14]: 10.4 nM
koff [14]: 0.000264 s⁻¹
kon [14]: 25400 M⁻¹ s⁻¹
B1: CBD1033 Fab (h1017-H2 / h1017-L2) (Fab, V domains shown)
VH: QVQLVQSGAEVKKPGASVKVSCKASRYTFTDYNLHWVRQAPGQGLEWMGFIYPYNGGTGYAQKFQGRVTMTVDTSTSTAYMELSSLRSEDTAVYYCARDHRYNEGVSFDYWGQGTTVTVSS
VL: DIQLTQSPSSLSASVGDRATITCRASESVDGFGNSFMNWYQQKPGKAPKLLIYLASNLESGVPSRFSGSGSGTDFTLTISSVQPEDFATYYCQQNNEDPYTFGQGTKLEIK
notes: Expressed as F(ab) fragment; also called CBD1033 Fab molecule

Source: patent US20250195685A1 (CAPSTAN THERAPEUTICS, published 2025)
